Substrate in the data set: Oc1ccc(Cc2nc3c(Cc4ccccc4)nc(-c4ccc(O)cc4)cn3c2O)cc1
In words: luminescence, extrapolated peak intensity, Hill fit. Format: biochemical, Gaussia princeps (in: crustaceans). To be noted: free GLuc 0.05 µM, PBS, O2 as co-substrate, 0.1-30 µM CLZ.

B1: Gaussia luciferase (GLuc) (Gaussia princeps (in: crustaceans); M127L/M60L) (protein)
chain: KPTENNEDFNIVAVASNFATTDLDADRGKLPGKKLPLEVLKELEANARKAGCTRGCLICLSHIKCTPKMKKFIPGRCHTYEGDKESAQGGIGEAIVDIPEIPGFKDLEPLEQFIAQVDLCVDCTTGCLKGLANVQCSDLLKKWLPQRCATFASKIQGQVDKIKGAGGD
B1: the K0.5 was 9.8 (95% CI [6.2 µM, 43.1 µM]) µM.

(Values after PMC12718255, “Quantitative assessment of porin-mediated solute transport in biomimetic membranes” (Applied Microbiology and Biotechnology, 2025).)
